Test results published in patent US20250027068.
Positions count from the first letter of the chain named.

B1: PRT-451 (protein)
chain: MVTSVWTKGVTPPANFRKIVDGNIAYYHAPYKANQGWYDITKTFNGKDDLLCGAATAGNMLHWWFDQNKDQIEAYLKEHPEKQKINFNGEQMFDVKEAIDTKDDQTNSKLFEYFKEKAFPYLSTKHLGVFPDHVLDMFINGYRLSLTNHGPTPVKEGSKDPRGGIFDAVFTRGDQSKLLTSRHDLKNKTLKEISDLIKQELTEGKALALSHTYANVRINHVINLWGADFDSNGNLEAIYVTDSDSNASIGMKKYFVGVNSAGKVAISAKEIEDDNIGAQVLGLFTLSTGQDIWNQTNLEHHHHHH
B2: PRT-463 (protein)
chain: B1 chain with K32V, A74R, D104S, N107D, A208G, N232E, E236K, E272K, D273E
B3: PRT-449 (protein)
chain: B1 chain with A14T, N15D, N34G, L185F, N187E
B4: PRT-474 (protein)
chain: MVTSVWTKGVTPPTDFRKIVDGNIAYYHAPYKAGQGWYDITKAFDGGDDLLCGAATAGNMLHWWFDQNKEQIENYLKKHPEKQKINFNGEQMFDVKEAIDTKDSQTNSELFNYFKEKAFPYLSTKHLGVFPDHVIDMFINGYRLSLTNHGPTPVKRGSKDPRGGIFDAVFTRGDQSKLLTNRHDLKNKTLKEISDLIKQELTEGKALGISHTYANVRINHVINLWGADFDAEGNLEAIYVTDSDSNASIGMKKYFVGVNSNGKVAISAKEIEEDNIGAQVLGLFTLSTGQDIWNQTNLEHHHHHH
B5: PRT-475 (protein)
chain: B4 chain with D15N, K32V, G34N, A43T, D45N, G47K, T106L, N107D, E109K, N112E
B6: PRT-500 (protein)
chain: MVTSVWTKGVTPPADFTQGEDVFHAPYVANQGWYDITKAFDGGDDLLCGAATAGNMLHWWFDQNKEYIEAYLKKHPEKQKIMFGDQELLDVRKAINTKGSQKNSELFNYFRDKAFPNLSARRLGVMPDLVLDMFINGYYLNVTKTQTTDVNRTYQEKDKRGGIFDAVFTRGDQSKLLTSRHDLKNKGLKEISDLIKQELTEGKALGLSHTYANVRINHVINLWGADFDSDGNLKAIYVTDSDSNASIGMKKYFVGVNSAGKVAISAKEIKEDNIGAQVLGLFTLSTGQDIWNQTNLEHHHHHH
B7: PRT-523 (protein)
chain: MITSVWTKGVTPPTDFIKGEDVFHAPYKAGQGWYDITKTFNGKDNLLCGAATAGNMLHWWFDQNKEEIEAYLKKHPEKQKIIFNNQELFDLKAVINTKDSQTNSALFNYFKDKAFPNLSARRLGVFPDLVLDMFINGYYLNVYKTQTTDVNRTYQTKDRRGGIFDAVFTRGVQSKLLTERHDLKNKTLKEISDLIKQELTEGKALGLSHTYANVRINHVINLWGADFDSNGNLEAIYVTDSDTNASIGMKKYFVGVNSAGKVAISAKEIKEDNIGAQVLGLFTLSTGQDIWNQTNLEHHHHHH
B8: PRT-490 (protein)
chain: MVTSVWTKGVTPPTDFIYGEDVLHAPYKAGQGWYDITKTFNGKDNLLCGAATAGNMLHWWFDQNKEQIENYLKKHPEKQKIIFNNQELFDLKAAIDTKDSQLDSKLFEYFKEKAFPYLSTKHLGVFPDHVIDMFINGYRLSLTNHGPTPVKRGSKDKRGGIFDAVFTRGVQSKLLTNRHDFKEKTLKEISDLIKQELTEGKALGISHTYANVRINHVINLWGADFDAEGNLEAIYVTDSDTNASIGMKKYFVGVNSNGKVAISAKEIEEDNIGAQVLGLFTLSTGQDIWNQTNLEHHHHHH
B9: PRT-457 (protein)
chain: MVTSVWTKGVTPPTDFIKGEDVFHAPYKAGQGWYDITKAFDGGDDLLCGAATAGNMLHWWFDQNKDQIEAYLKEHPEKQKINFNGEQMFDVKEAIDTKDDQTNSELFNYFKEKAFPYLSTKHLGVFPDHVLDMFINGYRLSLTNHGPTPVKRQEKDPRGGIFDAVFGRGDQTKLLTSRHDLKNKTLKEISDLIKQELTEGKALALSHTYANVRINHVINLWGADFDSNGNLEAIYVTDSDSNASIGMKKYFVGVNSAGKVAISAKEIEDDNIGAQVLGLFTLSTGQKIWNKTNLEHHHHHH
B10: PRT-614 (protein)
chain: MQITSVWTKGVKPLTPEQFRYNNEDVIHAPYLAHQGWYDITKAFDGKDNLLCGAATAGNMLHWWFDQNKTEIEAYLSKHPEKQKIIFNNQELFDLRAAIDTKDSQTNSQLFNYFRDKAFPNLSARQLGVMPDLVLDMFINGYYLNVFKTQSTDVNRPYQDKDKRGGIFDDVFTRGDQTTLLTARHDLKNGGLNDISTIIKQELTEGRALALSHTYANVSISHVINLWGADFNAEGNLEAIYVTDSDANASIGMKKYKVGINAHGHVAISAKKIEGENIGAQVLGLFTLSSGKDIWQKLSLEHHHHHH
B11: PRT-662 (protein)
chain: B10 chain with K12T, I27F, D100N, D170A, G190K, I198L, K257F, H263S
B12: PRT-481 (protein)
chain: MVTSVWTKGVTPPTDFIYGEDVLHAPYKAGQGWYDITKAFDGGDDLLCGAATAGNMLHWWFDQNKEQIENYLKKHPEKQKINFNGEQMFDVKEAIDTKDSQTNSELFNYFKEKAFPYLSTKHLGVFPDHVIDMFINGYRLSLTNHGPTPVKRQEKDPRGGIFDAVFGRGDQTKLLTNRHDLKNKTLKEISDLIKQELTEGKALGISHTYANVRINHVINLWGADFDAEGNLEAIYVTDSDSNASIGMKKYFVGVNSNGKVAISAKEIEEDNIGAQVLGLFTLSTGQKIWNKTNLEHHHHHH
B13: PRT-453 (protein)
chain: MVTSVWTKGVTPPANFTQGEDVFHAPYKANQGWYDITKTFNGKDDLLCGAATAGNMLHWWFDQNKDQIEAYLKEHPEKQKINFNGEQMFDVKEAIDTKDDQTNSKLFEYFKEKAFPYLSTKHLGVFPDHVLDMFINGYRLSLTNHGPTPVKEGSKDPRGGIFDAVFTRGDQSKLLTSRHDLKNKTLKEISDLIKQELTEGKALALSHTYANVRINHVINLWGADFDSNGNLEAIYVTDSDSNASIGMKKYFVGVNSAGKVAISAKEIEDDNIGAQVLGLFTLSTGQDIWNQTNLEHHHHHH
B14: PRT-465 (protein)
chain: B13 chain with K28V, A70R, D100S, N103D, A204G, N228E, E232K, E268K, D269E
B15: PRT-519 (protein)
chain: MVTSVWTKGVTPPTDFIKGEDVFHAPYKAGQGWYDITKTFNGKDNLLCGAATAGNMLHWWFDQNKEYIEAYLKKHPEKQKIIFNNQELFDLKAAINTKGSQKNSELFNYFRDKAFPNLSARRLGVFPDLVLDMFINGYYLNVTKTQTTDVNRTYQEKDKRGGIFDAVFTRGVQSKLLTSRHDLKNKGLKEISDLIKQELTEGKALGLSHTYANVRINHVINLWGADFDSDGNLKAIYVTDSDTNASIGMKKYFVGVNSAGKVAISAKEIKEDNIGAQVLGLFTLSTGQDIWNQTNLEHHHHHH

Molecular target: pooled human IgG (human IgG1, 2, 3 and 4)

Protein	Enzyme Activity Endpoint Assay: Fab′2	Enzyme Activity Endpoint Assay: Fc	Enzyme Activity Endpoint Assay: IgG	Enzyme Activity Endpoint Assay: scIgG	Enzyme Activity Endpoint Assay (purified): Fab′2	Enzyme Activity Endpoint Assay (purified): Fc	Enzyme Activity Endpoint Assay (purified): IgG	Enzyme Activity Endpoint Assay (purified): scIgG
B1	1250 ng/µL	324 ng/µL	0 ng/µL	0 ng/µL				
B2	821 ng/µL	259 ng/µL	0 ng/µL	0 ng/µL				
B3					1100 ng/µL	365 ng/µL	0 ng/µL	0 ng/µL
B4	462 ng/µL	156 ng/µL	0 ng/µL	229 ng/µL				
B5					1150 ng/µL	413 ng/µL	0 ng/µL	0 ng/µL
B6	25 ng/µL	30 ng/µL	0 ng/µL	0 ng/µL				
B7	17 ng/µL	24 ng/µL	0 ng/µL	0 ng/µL				
B8					73 ng/µL	243 ng/µL	166 ng/µL	875 ng/µL
B9					450 ng/µL	379 ng/µL	138 ng/µL	337 ng/µL
B10	0 ng/µL	0 ng/µL	0 ng/µL	0 ng/µL				
B11	8 ng/µL	13 ng/µL	0 ng/µL	0 ng/µL				
B12	1380 ng/µL	429 ng/µL	65 ng/µL	0 ng/µL				
B13	1620 ng/µL	607 ng/µL	17 ng/µL	0 ng/µL				
B14	504 ng/µL	296 ng/µL	111 ng/µL	501 ng/µL				
B15	0 ng/µL	17 ng/µL	0 ng/µL	0 ng/µL				
